Assay results: article PMC11849118

Biological target: T1, CFP-tagged hABHD5 (Human ABHD5-ECFP) (human), Q8WTS1
T1 chain: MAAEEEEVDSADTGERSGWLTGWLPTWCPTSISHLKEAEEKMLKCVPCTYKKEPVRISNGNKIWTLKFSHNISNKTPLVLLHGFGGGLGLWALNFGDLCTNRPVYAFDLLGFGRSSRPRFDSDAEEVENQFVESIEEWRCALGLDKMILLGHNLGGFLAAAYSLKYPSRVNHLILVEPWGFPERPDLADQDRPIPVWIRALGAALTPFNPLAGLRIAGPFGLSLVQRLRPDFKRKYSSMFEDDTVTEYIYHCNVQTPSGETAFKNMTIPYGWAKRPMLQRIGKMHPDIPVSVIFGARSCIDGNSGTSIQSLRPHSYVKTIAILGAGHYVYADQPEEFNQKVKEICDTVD
Assay: fluorescence cross-correlation spectroscopy (FCCS); live cell dual color FCCS in transfected cells loaded with oleic acid overnight; excitation focused into the center of the cytoplasm; Fc = fraction of diffusers that are multicolored clusters
Conditions: remark: other sources report otherwise

Fc (fraction of diffusers that are multicolored clusters of ABHD5 and PNPLA3): 0.32 | percent of ABHD5 codiffusing with PNPLA3: 24% | percent of PNPLA3 codiffusing with ABHD5: 78%
B1: WT hPNPLA3-EYFP, Q9NST1 1-481 (natural protein)
chain: MYDAERGWSLSFAGCGFLGFYHVGATRCLSEHAPHLLRDARMLFGASAGALHCVGVLSGIPLEQTLQVLSDLVRKARSRNIGIFHPSFNLSKFLRQGLCKCLPANVHQLISGKIGISLTRVSDGENVLVSDFRSKDEVVDALVCSCFIPFYSGLIPPSFRGVRYVDGGVSDNVPFIDAKTTITVSPFYGEYDICPKVKSTNFLHVDITKLSLRLCTGNLYLLSRAFVPPDLKVLGEICLRGYLDAFRFLEEKGICNRPQPGLKSSSEGMDPEVAMPSWANMSLDSSPESAALAVRLEGDELLDHLRLSILPWDESILDTLSPRLATALSEEMKDKGGYMSKICNLLPIRIMSYVMLPCTLPVESAIAIVQRLVTWLPDMPDDVLWLQWVTSQVFTRVLMCLLPASRSQMPVSSQQASPCTPEQDWPCWTPCSPKGCPAETKAEATPRSILRSSLNFFLGNKVPAGAEGLSTFPSFSLEKSL
